Results taken from patent US20020086844A1 (Harvard, published 2002).

Biological target: T1, constitutively expressed nonmitochondrial Hsp70 homolog Hsc70 (human, UniProt P11142 2-646)
T1 construct: Endogenous; used as the control in the co-immunoprecipitation
Experiment: co-immunoprecipitation with hTid-1-specific mAbs, immunoblot for Hsc70
Procedure: FIG. 2C. Endogenous hTid-1L and hTid-1S coimmunoprecipitate with mtHsp70. Immunoprecipitation experiments were performed from U20S cells by using mAbs specific for either hTid-1, mtHsp70, or Hsc70. Immune complexes were analyzed by SDS/PAGE and Western blot with hTid-1-, mtHsp70-, or Hsc70-specific mAbs.
Because hTid-1 proteins have extremely well conserved J domains, we suspected that they may be interacting with the mitochondrial Hsp70 homolog, mtHsp70 (GRP75), which is also localized to the mitochondrial matrix. We performed coimmunoprecipitation-immunoblot experiments by using mAbs specific for hTid-1, mtHsp70, or the constitutively expressed nonmitochondrial Hsp70 homolog Hsc70 as a control. hTid-1-specific mAbs immunoprecipitate endogenous hTid-1L and hTid-1S in complex with mtHsp70 from human U2OS cells. (FIG. 2C).

T1 sequence (P11142 2-646 limits assumed): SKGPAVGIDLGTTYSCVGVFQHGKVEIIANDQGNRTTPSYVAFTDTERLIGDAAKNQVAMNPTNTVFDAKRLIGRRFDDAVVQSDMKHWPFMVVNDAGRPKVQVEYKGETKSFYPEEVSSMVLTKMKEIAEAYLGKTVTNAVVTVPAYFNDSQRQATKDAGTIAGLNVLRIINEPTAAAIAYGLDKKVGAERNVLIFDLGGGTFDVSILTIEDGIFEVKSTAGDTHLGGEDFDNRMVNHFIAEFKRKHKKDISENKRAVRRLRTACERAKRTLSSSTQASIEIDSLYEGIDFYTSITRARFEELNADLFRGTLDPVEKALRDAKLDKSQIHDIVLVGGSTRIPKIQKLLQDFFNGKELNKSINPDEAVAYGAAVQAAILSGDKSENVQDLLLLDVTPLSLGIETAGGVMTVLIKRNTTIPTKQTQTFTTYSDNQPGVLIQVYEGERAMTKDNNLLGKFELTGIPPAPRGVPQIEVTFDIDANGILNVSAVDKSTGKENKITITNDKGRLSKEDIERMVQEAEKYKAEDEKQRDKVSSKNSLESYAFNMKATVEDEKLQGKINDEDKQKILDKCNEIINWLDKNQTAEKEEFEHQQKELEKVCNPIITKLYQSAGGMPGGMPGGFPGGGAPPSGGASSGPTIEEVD

| binding result | Binder |
| --- | --- |
| no binding | hTid-1S (other, Endogenous protein from human cell lysates; also called short form of human Tid1; 40 kDa TID1 splice variant) VSLTGTKHNPFICTASFHTSAPLAKEDYYQILGVPRNASQKEIKKAYYQLAKKYHPDTNKDDPKAKEKFSQLAEAYEVLSDEVKRKQYDAYGSAGFDPGASGSQHSYWKGGPTVDPEELFRKIFGEFSSSSFGDFQTVFDQPQEYFMELTFNQAAKGVNKEFTVNIMDTCERCNGKGNEPGTKVQHCHYCGGSGMETINTGPFVMRSTCRRCGGRGSIIISPCVVCRGAGQAKQKKRVMIPVPAGVEDGQTVRMPVGKREIFITFRVQKSPVFRRDGADIHSDLFISIAQALLGGTARAQGLYETINVTIPPGTQTDQKIRMGGKGIPRINSYGYGDHYIHIKIRVPKRLTSRQQSLILSYAEDETDVEGTVNGVTLTSSGKRSTGN |
| no binding | hTid-1L (other, Endogenous protein from human cell lysates; also called long form of human Tid1; 43 kDa TID1 splice variant) VSLTGTKHNPFICTASFHTSAPLAKEDYYQILGVPRNASQKEIKKAYYQLAKKYHPDTNKDDPKAKEKFSQLAEAYEVLSDEVKRKQYDAYGSAGFDPGASGSQHSYWKGGPTVDPEELFRKIFGEFSSSSFGDFQTVFDQPQEYFMELTFNQAAKGVNKEFTVNIMDTCERCNGKGNEPGTKVQHCHYCGGSGMETINTGPFVMRSTCRRCGGRGSIIISPCVVCRGAGQAKQKKRVMIPVPAGVEDGQTVRMPVGKREIFITFRVQKSPVFRRDGADIHSDLFISIAQALLGGTARAQGLYETINVTIPPGTQTDQKIRMGGKGIPRINSYGYGDHYIHIKIRVPKRLTSRQQSLILSYAEDETDVEGTVNGVTLTSSGGSTMDSSAGSKARREAGEDEEGFLSKLKKMFTS |
